Results taken from PMC12206513 (Molecular Biology of the Cell, 2025).

How the values were obtained:
[1] = target: His6-importin α-CyPet / S-His6-importin β (UniProt P52292); test: FRET or BRET
[2] = target: 6HisGFP-XCTK2-MBD2^mut (Xenopus) (UniProt P79955); test: co-sedimentation
[3] = target: GFP-XCTK2 (full-length, wild type) (Xenopus) (UniProt P79955); test: co-sedimentation
[4] = target: doubly stabilized microtubules (GMPCPP and paclitaxel) polymerized from cycled bovine tubulin (bovine, UniProt Q6B856 1-445); test: co-sedimentation

importin α-His6 / S-His6-importin β, sequence (Q14974 whole entry, one chain of several): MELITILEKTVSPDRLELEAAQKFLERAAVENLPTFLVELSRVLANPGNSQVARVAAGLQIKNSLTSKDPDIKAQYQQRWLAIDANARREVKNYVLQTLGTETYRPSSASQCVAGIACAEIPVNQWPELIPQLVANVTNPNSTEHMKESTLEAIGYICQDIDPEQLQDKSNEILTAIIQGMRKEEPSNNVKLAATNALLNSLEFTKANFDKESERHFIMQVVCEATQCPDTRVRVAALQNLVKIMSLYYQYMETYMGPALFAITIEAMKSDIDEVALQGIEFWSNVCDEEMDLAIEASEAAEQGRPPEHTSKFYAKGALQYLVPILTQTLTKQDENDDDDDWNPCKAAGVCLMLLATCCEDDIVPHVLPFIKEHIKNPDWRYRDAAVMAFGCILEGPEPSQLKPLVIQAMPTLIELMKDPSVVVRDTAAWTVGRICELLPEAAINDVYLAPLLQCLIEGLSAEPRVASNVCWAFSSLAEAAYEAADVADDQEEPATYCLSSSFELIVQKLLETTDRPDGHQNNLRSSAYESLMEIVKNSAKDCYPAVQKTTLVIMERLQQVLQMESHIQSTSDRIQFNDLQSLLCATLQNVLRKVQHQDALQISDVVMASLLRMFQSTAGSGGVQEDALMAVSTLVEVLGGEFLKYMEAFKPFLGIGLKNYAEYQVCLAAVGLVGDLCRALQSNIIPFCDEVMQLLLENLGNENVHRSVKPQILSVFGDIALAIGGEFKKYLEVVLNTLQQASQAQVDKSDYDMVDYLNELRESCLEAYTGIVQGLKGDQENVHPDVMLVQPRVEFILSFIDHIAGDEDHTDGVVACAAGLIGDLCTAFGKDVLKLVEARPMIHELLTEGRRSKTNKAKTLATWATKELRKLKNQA
GFP-XCTK2 (full-length, wild type) (Xenopus), sequence (P79955 whole entry): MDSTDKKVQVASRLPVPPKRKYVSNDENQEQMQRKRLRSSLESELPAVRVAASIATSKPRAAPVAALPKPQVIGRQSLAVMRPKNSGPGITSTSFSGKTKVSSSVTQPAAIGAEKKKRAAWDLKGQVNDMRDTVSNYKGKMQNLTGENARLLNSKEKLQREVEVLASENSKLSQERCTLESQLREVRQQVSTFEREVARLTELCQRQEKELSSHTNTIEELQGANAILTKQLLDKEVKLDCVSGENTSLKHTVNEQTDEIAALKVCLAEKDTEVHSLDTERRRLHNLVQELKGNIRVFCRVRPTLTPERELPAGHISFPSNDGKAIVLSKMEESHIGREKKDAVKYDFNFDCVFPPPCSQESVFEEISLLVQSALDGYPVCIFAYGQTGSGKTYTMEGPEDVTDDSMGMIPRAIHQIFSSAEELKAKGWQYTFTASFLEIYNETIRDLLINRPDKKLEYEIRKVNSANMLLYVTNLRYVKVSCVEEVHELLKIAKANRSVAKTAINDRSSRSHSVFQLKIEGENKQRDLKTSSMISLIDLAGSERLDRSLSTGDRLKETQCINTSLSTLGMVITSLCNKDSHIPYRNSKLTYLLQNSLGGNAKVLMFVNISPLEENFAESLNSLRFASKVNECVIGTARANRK

Molecule	fold higher apparent Kd than YPet-Tail [1] [fold]	stoichiometry N [4] [per tubulin dimer]	other results
YPet-Tail C2 (from UniProt P79955 62-120) (domain or fragment)	8	–	–
YPet-Tail C3 (from UniProt P79955 80-120) (domain or fragment)	8	–	–
importin α-His6 / S-His6-importin β (from UniProt P52292 1-529; Q14974 1-876) (complex)	–	–	percent reduction of MT binding by 0.4 µM importin α/β [2]: 43%; percent reduction of MT binding by 0.4 µM importin α/β [3]: 64%
YPet-Tail N3 (domain or fragment, Xenopus, UniProt P79955 2-79, looked up) DSTDKKVQVASRLPVPPKRKYVSNDENQEQMQRKRLRSSLESELPAVRVAASIATSKPRAAPVAALPKPQVIGRQSLA	–	1.1	fold higher apparent MT affinity than YPet-Tail C2 [4]: ~2 fold
YPet-Tail N3-MBD1^mut (domain or fragment) DSTDKKVQVASRLPVPPAAAYVSNDENQEQMQAAALRSSLESELPAVRVAASIATSKPRAAPVAALPKPQVIGRQSLA	–	–	fold higher Kd than YPet-Tail N3 [4]: 10 fold
YPet-Tail C2 (domain or fragment, Xenopus, UniProt P79955 62-120, looked up) APVAALPKPQVIGRQSLAVMRPKNSGPGITSTSFSGKTKVSSSVTQPAAIGAEKKKRAA	–	1.1	–
